A short description of this data set: label from the status in PepcDB records.
With “MVSTVRTVLGDVLPEHLGVCDAHDHLFFGSPQLPGQELRDASAARAELAAFREQGGGSVVQWTPYGLGRRAADLPLLSRDTGVHVVAATGLHQAVHYDAGTLAELRGRLADTFVAELTTGIGPSGVRAGLIKVAGGFHALDAHARWTMTAAAEAHHATGAPIAVHLELGTGALDVLDLLCGESGVPPHRVILGHLNRSPDFTVHRQAAEAGAFLAFDGPSRANHATDWRMPDALRALAEAGFGHRLLLGGDTTTAAARSVNGGPGLPYLLRRLRPRLEQALGKDLVGRIFTENPGRAFGVEWR”, the protein production result is recorded as “failed”.

For “MSIIFILKMSKQSEQILEEQLLIQLHKLGYEKVILPNEDALLLNLKKQLEKHNKITFSKAEFDKVLNIVNKGSVFEKAKILRQRQHIIRDNGDNLYFEFLNTDYWCQNEYQVTNQLSQEGRYLNRYDVTLLINGLPLVQIELKRRGLELKEAFNQIDRYRKHSFGSGHGLYHFVQLFVISNGVNTKYFGNFGIHKQEYLQTFHWTDENNKPLNNILNGFTDTFLEPCHISKMICKYIVLHETEKKLMVLRPYQYFAVENIIKKVKENEVLNGYDINKNGYIWHTTGSGKTLTSFKASQILSNIPAIKKVVFVVDRKDLDYQTNQEYEKFSQGCVSSVGNTDDLIKKFNDPAERIIVTTIQKLNNAISGKNIYKMKAMQDQRMVFIFDECHRSQFGDTHKNIVSYFTNIQLFGFTGTPILVENANGEKTTASLFGKCLHKYVITDAIRDENVLRFSVEYIQTFKQKEHIVDLKIEQINETEVFEAPERKEAIVNYILQHHKQKTQQGKYCAMMCVQDIDSVIQYYEILKAMKKAGEHQLKIITIFSFAQNEDPLDYEIKTELSVVEEPKALYGLPPHRRELLDAYIGDFNQLYDTAHSTKDSQSFYTYYNDVAKKAKNNEMDILLVANMFLTGFDSKYLNTLYVDKNLQYHGLIQAFSRTNRTHDKNKTQGNIVCFRNLKDKTDEAITLFSNREAIDEVIVAPYETYVEEFNKAVNQLKAIVPNVDSVDDLYTEEDQLKFILAFRNMIRLHKKMSHYTEFTWDDLEIEEQSFLDYSSKYQDLKDSIVHKSDKEKTSILDDIDFELELIKKDTINVSYIVQLLFKLKVKKGKKDKEEVEKEIFNLLNTEVSLRSKRELIEKFIKENMSKIVEAEDIVDEFTRFWNEEQQKAFDELVQDENLSAERTQHLIEGYLFSEQEPLRDEILKLRNEGRPSALQAKDISNRILQRIKDFVNTFINGMNIAA”, the protein production result is given as “failed”. Take “MTQDASPILTSLLDTDAYKLHMQQAVFHHYRHITVAAEFRCRSDELLGVYADEIRHQVTLMGQLALTSDEFIYLSSLPFFQDDYLHWLRDFRFKPEQVSVAVHDGKLDIRIAGLWCEVIMWEVPLLAVISEIVHRRRSTQVTTDQAVQQLRTKLEQFNALSADIDITHFKLMDFGTRRRFSREIQHTVVSTLKDEFPYLVGTSNYDLARTLALAPVGTQAHEWFQAHQQISPTLANSQRVALQVWLDEYPNQLGIALTDCITMDAFLRDFDLAFANRYQGLRHDSGDPIEWGEKAIAHYEKLGIDPMKKVLVFSDNLDLEKALFLYRHFYQRIKLVFGIGTRLTCDIPDVKPLNIVIKLVECNDKPVAKLSDSPGKTICQDPAFVDQLRKAFALPLVKKAS”: the protein production entry is “not failed”.

Take “MYDMLKFEFSDRFLLFSYFVLIMFIGSLLLMLPISWEGDGKLAYIDALFTAVSAVSITGLTTVKMEGFSTFGFILIMLLIQLGGLGFISITTFYLLIPKKKMNLTDARIIKQYSLSNIEYNPIRILKSILFITFSIEMIGLILILICFKLRGVNISFLEALFTTISAFCNAGFSMHSESIYAWRDVPEAIVVVSILIICGGLGFMVYRDVNNTIKNKKKLSLHAKIVFSLSFFLIIIGAILFFFTEMHKLKAGYSMSTLIFNSIFYSISTRTAGFNYLDNSLISGRTQIISLPFMFIGGAPGSTAGGIKITTFFLIVLAVVKNQNGNGYIIGSYKVSIDSIRFALLFFARAIFILSFSFFMLLFFEGGSGNWKVIDLGYEVFSAFGTVGLSVGVTQDLSFWGKVIIIFTMFAGRIGLFSMAVFVSRKSRFEEFTRPRQDILVG”: the protein production entry was “failed”. The value for “MPINQPSGQIKLTNVSLVRLKKARKRFEVACYQNKVQDYRKGIEKDLDEVLQIHQVFMNVSKGLVANKEDLQKCFGTTNVDDVIEEIMHKGEIQLSEKERQLMLNKVNNEMLTIVSAKCINPVSKKRYPPTMIHKALQELKFSPVINKPAKLQALEAIKLLVSKQIIPIVRAKMKVKVAISEPSRQPELIEKISKLIASSPGESTKPELDPWTCTGLIDPVNYRDLMTLCDKKGTVQVLDMAVIDNTTHN” was “failed”; that for “MLEVVYIVGAFGSPLLTPPTLAVAGFLIAVLMGLEYGVLWVLTGESLNRELILVISNIVYSIAWSITALPFTPIYYTLQPYFSQPLLIYLYLALFIGSILLGVIPAIMYIRKYLQFNKIQKEFKQLELDYKSINQEYSEINTRLNKAKEEINNVMDKINKAKELHETALRDPDLIVTALDKKPEIPEVIRPNVNYVVAGLGGTGTALLEALIDYLVSKNVIKEDGTNPFLFVAFDTNQASIARLRKKYEYTPVGKLLYTFNNFEALTTANIISHNPWLAGLNVDVIQGSGMKRAIGYASYNTVKEAMMEDILRRLSDLIAKTRTNRIFLIVFTALGGGTGSGSFIHFTKDFISRLGRITGDSEPYVRVSGM” was “failed”. The value for “MATYSLANERLRALEDIEREIGAILQNAGTAILELSKEKTNERLLDRQAAAFTTSVQHVEAELSAQIRYLTQVATGQPHEGSSYSSRKDCQMALKRVDYARLKISDVARTCEQMLEN” was “failed”; that for “MALKSHLRACSRPFPRQIGRMRRRNKSLPAAFVSKRLSVLIISRKPEMKALTCMAVLAALVTGSAFAQTPPQTSTRKVDGTDNVYIFRYGGHQSMFVVTPKGVIATDPISYLRPAKPYIDAIKAVTDQPIKYVVYSHHHYDHIAGGQPFKDLGATFIAHRRTKERLLELKKQNALLADVVMPDQVVDDKKSITLGGTTLELNYVGRNHSDNSLVMRLPKEKIVFVVDFAPIESVQFRNIPDNVSPLEYIASLKKLASLDWERMIPGHPNAGGRLGTKKDVEDDIAYMEDLSAEVKKAADAGKCIDTAMKEVKLPKYEKWANYETALPANVERFCYWWGRGY” was “failed”; that for “GSSGSSGMKQATRKPTTPGDILLYEYLEPLDLKINELAELLHVHRNSVSALINNNRKLTTEMAFRLAKVFDTTVDFWLNLQAAVDLWEVENNMRTQEELGRIETVAEYLARREERAKKVA” was “not failed”. Take “MTKQDIRVALTIVALVLGLGWAIGYGIGLMTRPASVVPENPPHDALKSPARKAPRSGAVSGDTRYPDYEELYVNDYADLLDPAAEDRLRDKLIALYGHNGVEMTVLTIDTMGTYGHGGAIEPFATGLFNNWGIGDAERNDGVLVLIVRFDRKMRIEIGAGYERAWDARMQRVIDAGFLPYFRRDEYQEGIEAGVDETIRELTGAYPGAWDMGTAQRGWSWLARAVDRIGEWVLSLLLVPLGGAALWVRRYLRNRTRPCAQCRTPMLRAGEEADDEHLDGGQRLEEYLKSVDYDVWHCPDCGHIDIHRYKSWFSGYGACPQCNYRTLSTTSTVLSAATKTREGRKRVEYDCAHCGHHDSEIRTIPKISDSNSGGSGRSSFGGGSSSGGGASGSW”: the protein production result was “failed”. The value for “MSTKTMKEKAVELLQKCEVVTLASVNKEGYPRPVPMSKIAAEGISTIWMSTGADSLKTIDFLSNPKAGLCFQEKGDSVALMGEVEVVTDEKLKQELWQDWFIEHFPGGPTDPGYVLLKFTANHATYWIEGTFIHKKLD” was “not failed”. Regarding “MEFEVKKTFGKARLGVMKLHHGAVETPVFMPVGTNASVKLLTPRDLEEAGAEIILSNTFHLMLKPGVEIIKLHRGLHNFMGWKRPILTDSGGFQVFSLPKIRIDDEGVVFRSPIDGSKVFLNPEISMEVQIALGSDICMVFDHCPVPDADYEEVKEATERTYRWALRSKKAFKTENQALFGIVQGGIYPDLRRESALQLTSIGFDGYAIGGLSIGEERSLTLEMTEVTVEFLPEDKPRYFMGGGSPELILELVDRGVDMFDSVFPTRIARHGTALTWNGKLNLKASYNKRSLEPVDERCGCYTCKNFTRSYIHHLFDRGEVLGQILLTIHNINFMISLMKEVRRSIESGTFKELKSKVVEVYSSGGVNV”, the protein production entry is “not failed”. For the sequence “YTSADNTWEPEENCDCPNLIQKFEESRAKSKKRGEKKPKCEEIQKLRGYERGLELAEIVGATDVTGDIKYLVRWQFCDEFDLVPSAQIVEKDPQMLIDYFQK”, the protein production result was “failed”.

Source of the values: a protein production outcome set (Wang et al. 2014).
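Also: failed if final PepcDB status was selected cloned or expressed and not failed if soluble or beyond.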
